Source: patent US20250084155A1

Tests used:
[1] = biological target: HSP70 (human HSP70; the antigen of the binning, humanization and variant binding assays) (human) (UniProt P0DMV8); test: Octet epitope binning, sandwich format; cell row C92F3-5 / column m77A; the sheet does not say whether rows or columns are the first antibody
[2] = biological target: HSP70 (human HSP70; the antigen of the binning, humanization and variant binding assays) (human) (UniProt P0DMV8); test: Octet epitope binning, sandwich format; cell row C92F3-5 / column N15F2-5; the sheet does not say whether rows or columns are the first antibody
[3] = biological target: HSP70 (human HSP70; the antigen of the binning, humanization and variant binding assays) (human) (UniProt P0DMV8); test: Octet epitope binning, sandwich format (first antibody on the sensor, then HSP70, then second antibody); cell row C92F3-5 / column C92F3-5; the sheet does not say whether rows or columns are the first antibody
[4] = biological target: HSP70 (human HSP70; the antigen of the binning, humanization and variant binding assays) (human) (UniProt P0DMV8); test: Octet epitope binning, sandwich format; cell row N15F2-5 / column m77A; the sheet does not say whether rows or columns are the first antibody
[5] = biological target: HSP70 (human HSP70; the antigen of the binning, humanization and variant binding assays) (human) (UniProt P0DMV8); test: Octet epitope binning, sandwich format; cell row N15F2-5 / column C92F3-5; the sheet does not say whether rows or columns are the first antibody
[6] = biological target: HSP70 (human HSP70; the antigen of the binning, humanization and variant binding assays) (human) (UniProt P0DMV8); test: Octet epitope binning, sandwich format; cell row N15F2-5 / column N15F2-5; the sheet does not say whether rows or columns are the first antibody

Sequence of HSP70 (human HSP70; the antigen of the binning, humanization and variant binding assays) (human) (P0DMV8 whole entry, change not shown): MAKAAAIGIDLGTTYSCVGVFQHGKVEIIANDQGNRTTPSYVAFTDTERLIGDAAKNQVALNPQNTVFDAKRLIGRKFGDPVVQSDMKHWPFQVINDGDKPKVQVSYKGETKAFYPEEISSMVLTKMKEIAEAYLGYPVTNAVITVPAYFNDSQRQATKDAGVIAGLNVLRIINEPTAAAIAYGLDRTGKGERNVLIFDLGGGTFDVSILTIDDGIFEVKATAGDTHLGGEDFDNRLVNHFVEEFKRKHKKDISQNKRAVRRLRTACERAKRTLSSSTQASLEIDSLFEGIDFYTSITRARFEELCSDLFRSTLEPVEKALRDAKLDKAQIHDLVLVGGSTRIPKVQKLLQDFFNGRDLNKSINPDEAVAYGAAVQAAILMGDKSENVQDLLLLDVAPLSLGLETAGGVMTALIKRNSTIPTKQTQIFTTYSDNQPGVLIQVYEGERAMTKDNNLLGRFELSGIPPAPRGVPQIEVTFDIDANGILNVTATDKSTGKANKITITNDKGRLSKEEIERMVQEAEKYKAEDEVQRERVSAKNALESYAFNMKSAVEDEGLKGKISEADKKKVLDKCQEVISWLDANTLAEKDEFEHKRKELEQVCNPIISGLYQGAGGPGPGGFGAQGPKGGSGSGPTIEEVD

maximal binding in the presence of the potentially competing antibody (given as a fraction; legend: percent) [1] | maximal binding in the presence of the potentially competing antibody (given as a fraction; legend: percent) [2] | maximal binding in the presence of the potentially competing antibody (given as a fraction; legend: percent) [3] | maximal binding in the presence of the potentially competing antibody (given as a fraction; legend: percent) [4] | maximal binding in the presence of the potentially competing antibody (given as a fraction; legend: percent) [5] | maximal binding in the presence of the potentially competing antibody (given as a fraction; legend: percent) [6] | Substance
0.781 | 0.489 | 0 |  |  |  | C92F3-5 (Fisher Scientific) anti-HSP70 antibody
 |  |  | 0.761 | 0.492 | 0 | N15F2-5 (Enzo Life Sciences) anti-HSP70 antibody
